{"source": "IntAct's records for PubMed 11964151", "parents": {"B1": {"name": "Galactose/lactose metabolism regulatory protein GAL80 (Saccharomyces cerevisiae), P04387 (parent)", "chain": "MDYNKRSSVSTVPNAAPIRVGFVGLNAAKGWAIKTHYPAILQLSSQFQITALYSPKIETSIATIQRLKLSNATAFPTLESFASSSTIDMIVIAIQVASHYEVVMPLLEFSKNNPNLKYLFVEWALACSLDQAESIYKAAAERGVQTIISLQGRKSPYILRAKELISQGYIGDINSIEIAGNGGWYGYERPVKSPKYIYEIGNGVDLVTTTFGHTIDILQYMTSSYFSRINAMVFNNIPEQELIDERGNRLGQRVPKTVPDHLLFQGTLLNGNVPVSCSFKGGKPTKKFTKNLVIDIHGTKGDLKLEGDAGFAEISNLVLYYSGTRANDFPLANGQQAPLDPGYDAGKEIMEVYHLRNYNAIVGNIHRLYQSISDFHFNTKKIPELPSQFVMQGFDFEGFPTLMDALILHRLIESVYKSNMMGSTLNVSNISHYSL", "partner": "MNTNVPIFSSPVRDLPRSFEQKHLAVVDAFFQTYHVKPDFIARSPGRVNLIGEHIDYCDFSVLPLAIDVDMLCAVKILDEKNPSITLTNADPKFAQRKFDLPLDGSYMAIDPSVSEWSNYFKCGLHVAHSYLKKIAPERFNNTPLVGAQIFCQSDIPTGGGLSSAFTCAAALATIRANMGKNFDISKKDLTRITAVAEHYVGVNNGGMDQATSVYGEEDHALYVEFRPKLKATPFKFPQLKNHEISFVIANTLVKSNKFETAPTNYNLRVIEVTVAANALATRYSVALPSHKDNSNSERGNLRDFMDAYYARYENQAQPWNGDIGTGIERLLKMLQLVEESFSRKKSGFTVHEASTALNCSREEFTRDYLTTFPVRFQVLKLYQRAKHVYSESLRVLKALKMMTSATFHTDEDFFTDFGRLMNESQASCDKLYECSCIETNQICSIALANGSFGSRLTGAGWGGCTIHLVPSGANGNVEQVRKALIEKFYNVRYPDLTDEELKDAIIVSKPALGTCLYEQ"}}}
{"variants_of": "B1", "conditions": "with gal3_yeast GAL3, P13045"}
{"variant": "MDYNKRSSVSTVPNAAPIRVGFVGLNAAKGWAIKTHYPAILQLSSQFQITALYSPKIETSIATIQRLKLSNATAFPTLESFASSSTIDMIVIAIQVASHYEVVMPLLEFSKNNPNLKYLFVEWALACSLDQAESIYKAAAERGVQTIISLQGRKSPYILRAKELISQGYIGDINSIEIAGNGGWYGYERPVKSPKYIYEIGNGVDLVTTTFGHTIDILQYMTSSYFSRINAMVFNNIPEQELIDERGNRLGQRVPKTVPDHLLFQGTLLNGNVPVSCSFKGGKPTKKFTKNLVIDIHGTKGDLKLEGDAGFAEISNLVLYYSGTRANDFPLANGQQAPLDPGYDAGKEIMKVYHLRNYNAIVGNIHRLYQSISDFHFNTKKIPELPSQFVMQGFDFEGFPTLMDALILHRLIESVYKSNMMGSTLNVSNISHYSL", "note": "[E351K]", "effect of a mutation on the interaction": "decreasing interaction strength"}
